The target in experiment [1] is human CDH17 as originally expressed on cancer cells (AsPC1, GP2d and other CDH17 expressing cell lines) (human) (UniProt Q12864). As to the kind of experiment: flow cytometry on AsPC1 cells, Alexa Fluor 647 labelled antibody.
Experiment [2] addresses human CDH17 as originally expressed on cancer cells (AsPC1, GP2d and other CDH17 expressing cell lines) (human, UniProt Q12864 23-832). As to the kind of experiment: cell-based or functional assay.
In experiment [3] the target is T1, cynomolgus CDH17-His tag (Acro Biosystems, catalog number CA7-C52H4) (cynomolgus, UniProt A0A2K5X8I8 31-795).
T1 construct: Bought protein; also called cCDH17; cynomolgus CDH17 protein; not shown: His tag
T1 sequence (A0A2K5X8I8 entry or part of it, form in doubt): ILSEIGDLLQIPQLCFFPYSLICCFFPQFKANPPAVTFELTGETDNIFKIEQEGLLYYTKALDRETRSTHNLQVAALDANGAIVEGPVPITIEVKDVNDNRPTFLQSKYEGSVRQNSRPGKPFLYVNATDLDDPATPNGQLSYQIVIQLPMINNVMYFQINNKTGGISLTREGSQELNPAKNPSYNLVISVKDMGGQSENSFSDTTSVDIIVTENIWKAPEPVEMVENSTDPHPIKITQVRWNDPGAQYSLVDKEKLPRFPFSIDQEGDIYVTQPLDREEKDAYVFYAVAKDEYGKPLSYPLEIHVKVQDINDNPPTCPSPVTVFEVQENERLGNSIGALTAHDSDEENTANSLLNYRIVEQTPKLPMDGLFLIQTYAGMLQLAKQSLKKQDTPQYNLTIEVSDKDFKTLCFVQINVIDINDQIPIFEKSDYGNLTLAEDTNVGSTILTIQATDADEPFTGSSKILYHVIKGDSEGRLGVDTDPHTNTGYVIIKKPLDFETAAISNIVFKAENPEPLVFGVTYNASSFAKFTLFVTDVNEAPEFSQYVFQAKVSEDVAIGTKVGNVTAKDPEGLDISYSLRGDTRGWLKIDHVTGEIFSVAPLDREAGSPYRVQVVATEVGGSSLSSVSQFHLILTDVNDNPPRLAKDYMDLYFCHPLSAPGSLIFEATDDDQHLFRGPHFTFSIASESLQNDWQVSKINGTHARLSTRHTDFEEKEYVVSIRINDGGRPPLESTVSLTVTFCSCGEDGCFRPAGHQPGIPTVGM
As to the kind of experiment: BLI (Octet Red 384), antibody captured on AHC biosensor, antigen 200 nM to 3.1 nM. As to the method:
(§1) The affinity between CDH17 antibodies and CDH17 antigens and homologues was determined by Octet (Octet Red 384) instrument. Anti-hIgG Fc Capture (AHC) Biosensors were selected, and the sensors were balanced with buffer solution for 10 min. Subsequently, sensors were dipped into the wells containing 1 μg/ml of CDH17 lead antibodies to load onto the probes. The excess unbound antibodies were washed off. The antigen binding was performed in the wells containing serially diluted human CDH17-His tag (Sino biological, catalog number 11360-H08H), cynomolgus CDH17-His tag (Acro Biosystems, catalog number CA7-C52H4), homologs human CDH6-His tag (Acro Biosystems, catalog number CA6-H5229) and human CDH16-His tag (Sino biological, catalog number 10915-H08H), with concentration ranging from 200 nM to 3.1 nM, for 5 min. Then probes were dipped into wells containing renewed buffer to initiate the dissociation for another 15 min.
(In BLI a coated tip is dipped into the sample, and binding shifts an interference pattern.)

In experiment [4] the target is T2, human CDH6-His tag (Acro Biosystems, catalog number CA6-H5229) (human, UniProt P55285 54-615).
T2 construct: Bought protein; also called hCDH6; not shown: His tag
T2 sequence (looked up): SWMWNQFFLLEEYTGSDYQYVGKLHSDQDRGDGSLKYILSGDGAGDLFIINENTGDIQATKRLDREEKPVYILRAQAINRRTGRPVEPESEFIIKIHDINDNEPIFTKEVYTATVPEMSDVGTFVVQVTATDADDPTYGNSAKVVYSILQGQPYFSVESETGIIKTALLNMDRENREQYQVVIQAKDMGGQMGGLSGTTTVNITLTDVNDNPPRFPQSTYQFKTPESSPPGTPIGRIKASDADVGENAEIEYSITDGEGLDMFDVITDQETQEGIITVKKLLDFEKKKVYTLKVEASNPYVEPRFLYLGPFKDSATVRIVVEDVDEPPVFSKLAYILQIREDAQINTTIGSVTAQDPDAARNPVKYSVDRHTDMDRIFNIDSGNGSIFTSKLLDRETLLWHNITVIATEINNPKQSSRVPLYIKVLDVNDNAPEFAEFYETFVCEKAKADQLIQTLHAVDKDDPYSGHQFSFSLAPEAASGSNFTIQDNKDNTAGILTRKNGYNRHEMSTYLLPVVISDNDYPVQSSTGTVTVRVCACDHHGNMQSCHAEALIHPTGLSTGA
The experiment can be described thus: BLI (Octet Red 384), antibody captured on AHC biosensor. As for the experimental part: as §1

The target in experiment [5] is T3, human CDH16-His tag (Sino biological, catalog number 10915-H08H) (human, UniProt O75309 19-786).
T3 construct: Bought protein; also called hCDH16; not shown: His tag
T3 sequence (looked up): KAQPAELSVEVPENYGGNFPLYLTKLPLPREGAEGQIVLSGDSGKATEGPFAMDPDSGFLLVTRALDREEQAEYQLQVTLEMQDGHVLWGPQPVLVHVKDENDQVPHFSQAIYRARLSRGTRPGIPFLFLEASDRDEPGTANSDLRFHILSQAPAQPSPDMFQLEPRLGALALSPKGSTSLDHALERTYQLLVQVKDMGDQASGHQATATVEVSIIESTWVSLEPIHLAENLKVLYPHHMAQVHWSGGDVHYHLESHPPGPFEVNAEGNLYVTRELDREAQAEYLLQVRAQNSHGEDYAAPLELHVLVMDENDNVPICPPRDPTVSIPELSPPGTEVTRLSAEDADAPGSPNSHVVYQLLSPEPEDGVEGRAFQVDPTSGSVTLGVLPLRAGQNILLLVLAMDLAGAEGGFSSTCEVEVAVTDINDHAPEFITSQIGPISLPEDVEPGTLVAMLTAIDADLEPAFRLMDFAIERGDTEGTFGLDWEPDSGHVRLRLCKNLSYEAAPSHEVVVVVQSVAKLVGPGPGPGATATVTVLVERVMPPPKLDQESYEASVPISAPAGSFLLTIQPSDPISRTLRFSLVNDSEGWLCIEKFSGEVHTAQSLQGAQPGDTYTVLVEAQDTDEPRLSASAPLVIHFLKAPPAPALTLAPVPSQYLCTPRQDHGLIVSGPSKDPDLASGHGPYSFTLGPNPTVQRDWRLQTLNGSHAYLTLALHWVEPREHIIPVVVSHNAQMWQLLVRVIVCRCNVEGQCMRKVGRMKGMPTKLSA
The experiment is described as above. As for the experimental part:
as §1

The term EC80 denotes the point of the concentration-response curve where the effect stands at 80%. Read a low EC80 as an effect from little substance. In experiment [1], “HBMAB-81, reformatted mAb with the CDH17 binding arm from bispecific antibody BI 905771 and human IgG1 backbone” returned an EC80 of 0.97 nM.

B1: 13C7 anti-CDH17 recombinant antibody (human IgG1) (antibody, V domains shown)
VH: QITLKESGPTLVKPTQTLTLTCTFSGFSLSTSGVGVGWIRQPPGKALEWLALIYWNDDKRYRPSLKNRLTITKDTSKNQVVLTMTNMDPVDTATYYCTHYGVTAPFYNWFDPWGQGTLVTVSS
VL: DIQMTQSPSSLSASVGDRVTITCRASQSITSYLNWYQQKPGKAPKLLIYAASSLQSGVPSRFSGSGSGTDFTLTISSLQPEDFATYYCQRSYSTLTFGGGTKVEIKR
Take B1: in experiment [2], the “IC50 of indirect killing assay (internalization) in AsPC1 cells, complex with Fab anti-human IgG Fc-MMAF” value (“IC50 of indirect killing assay” below) came out at 0.09 nM.

B2: 19C7 anti-CDH17 recombinant antibody (human IgG1) (antibody, V domains shown)
VH: QITLKESGPTLVKPTQTLTLTCTFSGISLSTGGVGVGWIRQPPGKALEWLSLIYWNDDKRYSPSLKSRLTITKDSSKNQVVLTMTNMDPVDTATYYCAHSGLAAPFYNWFDPWGQGTLVTVSS
VL: DIQMTQSPSSLSASVGDRVTITCRASQSISNYLNWYQLKPGNAPKLLIFAASSLQSGVPSRFSGSGSGTDFTLTISSLQPEDFATYFCQRSYSTLTFGGGTKVEIKR
Take B2: in experiment [2], the “IC50 of indirect killing assay” value came to 0.09 nM.

B3: 4F9 anti-CDH17 recombinant antibody (human IgG1) (antibody, V domains shown)
VH: QVQLQESGPGLVKPSGTLSLTCAVSGGSISSSNWWSWVRQPPGKGLEWIGEIYHSGSTSYNPSLKSRVTISVDKSKNQFSLKLSSVTAADTAVYYCARNDWGFPLDCWGQGTLVTVSS
VL: DIQMTQSPSSLSASVGDRVTITCRASQSISSYLNWYQQKPGKAPKLLIYAASSLQSGVPSRFSGSGSGTHFTLTISSLQPEDFATYYCQQSHNIPITFGQGTRLEIKR
B3: the “IC50 of indirect killing assay” value in experiment [2] stood at 0.29 nM.

B4: 1H10 anti-CDH17 recombinant antibody (human IgG1) (antibody, V domains shown)
VH: QVQLVESGGGVVQPGRSLRLSCVASGFTFSSYGMHWVRQAPGKGLEWVTFIWYDGSNKNYADSVKGRFTISRDNSKNTLNLQMNSLRVEDTAVYYCARDRYSSGWDVFDYWGQGTLVTVSS
VL: DIQMTQSPSSVSASVGDRVTITCRASQDISSWLAWYQQQPGKAPKLQIYAASSLQSGVPSRFSGSGSGTDFTLTISSLQPEDFATYYCQQAKSFPPTFGQGTKVEIKR
Turning to B4, the “IC50 of indirect killing assay” value in experiment [2] turned out to be 0.19 nM.

B5: 10E11 anti-CDH17 recombinant antibody (human IgG1) (antibody, V domains shown)
VH: EVQLVQSGTEVKKPGESLKISCKDSGYRFSSYWIGWVRQMPGKGLEWMGIIYPGDSDTRYSPSFQGQVTISADKSISTAYLQWRSLKASDTAMYYCARRGWVNYFDYWGQGTLVTVSS
VL: DIQMTQSPSSVSASVGDRVTITCRASQGISNWLGWYQQKPGKAPKLLIYAASSLQSGVPSRFSGSGSGTDFTLTISSLQPEDFATYYCQQANSFPLTFGGGTKVEIKR
notes: Recombinant human IgG1 / kappa, expressed in CHO or ExpiCHO-S cells
What is called Kd is the equilibrium constant for the complex coming apart. A higher Kd goes with lower affinity. A word on the koff: it is the rate constant with which the complex falls apart. A low value points to slow dissociation. What is called kon is the second-order rate constant of association. Lower therefore signals slow association. Turning to B5, the “IC50 of indirect killing assay” value in experiment [2] turned out to be 0.08 nM. In experiment [3], this molecule yielded a Kd of 15 nM, a koff of 0.0012 s⁻¹ and a kon of 80000 M⁻¹ s⁻¹. Besides, the binding result in experiment [4] is “no binding (tested: 200 nM highest antigen concentration)”. Also, the binding result in experiment [5] was “no binding (tested: 200 nM highest antigen concentration)”.

B6: 15A4 anti-CDH17 recombinant antibody (human IgG1) (antibody, V domains shown)
VH: QVQLVESGGGVVQPGRSLRLSCAASGFNFSSYGMHWVRQAPGKGLEWVAFVWYDGSNQNYADSVKGRFTISRDNSNNTLYLQMNSLRAEDTAVYYCARDRYSSGWDVFDYWGQGTLVTVSS
VL: DIQMTQSPSSVSASVGDRVTITCRASQGISSWLAWYQQKPGKAPKLLIFAASSLQSGVPSRFSGSGSGTGFTLTISSLQPEDFATYYCQQAKSFPPTFGQGTKVEIKR
As to B6, the “IC50 of indirect killing assay” value in experiment [2] was determined as 1.99 nM.

B7: 17F3 anti-CDH17 recombinant antibody (human IgG1) (antibody, V domains shown)
VH: EVQLVESGGGLVKSGGSLRLSCAASGFTFSSYSLKWVRQAPGKGLEWVSSISSSSGYIYYADSVKGRFTISRDNAKNSLYLQMNSLRAEDTAMYYCARAVSTIAARPGYYYYYMDVWGKGTLVTVSS
VL: DIQMTQSPSSVSASIGDRVTITCRASQDISTWFAWYQQKPGKAPKLLIYAASTLRSGVPSRFSGSGSGTDFTLTINSLQPEDFATYYCQQANSFPLTFGGGTKVEIKR
Take B7: the “IC50 of indirect killing assay” value in experiment [2] is 0.08 nM.

B8: 14B12 anti-CDH17 recombinant antibody (human IgG1) (antibody, V domains shown)
VH: QVQLQESGPGLVKPSETLSLTCTVSGGSINTYYRSWIRQPPGKGLEWIGYIYYSGNTNYNPSLKSRVTISADTSKNQFSLNLISVTAADTAMYYCARAQYGEEAFDIWGQGTLVTVSS
VL: DIQMTQSPSSLSASVGDRVTITCRASQSITTYLNWYQQKPGKAPQLLIFAASRLQTGVPSRFSGSGSGTDFTLTISSLLPGDFATYYCQQSYNTPPTFGGGTKVEIKR
notes: as for B5
Turning to B8, in experiment [2], the “IC50 of indirect killing assay” value was 0.09 nM. Moreover, the binding result in experiment [4] and in experiment [5] was “no binding (tested: 200 nM highest antigen concentration)” each time.

B9: 2F9 anti-CDH17 recombinant antibody (human IgG1) (antibody, V domains shown)
VH: EVQLVESGGGVVRPGGSLRLSCAASGFTFDDYGMSWVRQAPGKGLEWVSGLSWNGGNTYYADSVKGRFTISRDNAKNSLYLQMNSLRAEDTALYYCARGSRYNWNYDAFDIWGQGTLVTVSS
VL: DIQMTQSPSSLSASIGDRVTITCRASQGIRNALGWYQQKPGKAPKRLIYAASNLQSGVPSRFSGSGSGTEFTLTISSLQPEDFATYYCLQHNSYPFTFGPGTKVEIKR
Take B9: the “IC50 of indirect killing assay” value in experiment [2] is 0.14 nM.

B10: 9E2 anti-CDH17 recombinant antibody (human IgG1) (antibody, V domains shown)
VH: EVQLVESGGGVVRPGGSLRLSCAASGFTFDNYGMSWVRQAPGKGLEWVSGINWNGGSTYYADSVRGRFTISRDNAKNSLYLQMNSLRAEDTALYYCARGSRYNWSYDAFDIWGQGTLVTVSS
VL: DIQMTQSPSSLSASVGDRVTITCRASQGVRNALGWYQQKPGKAPKRLIYAASSLQSGVPSRFSGSGSGTEFTLTISSLQPEDFATYYCLQHNSYPFTFGPGTKVEIKR
For the molecule B10, the “IC50 of indirect killing assay” value in experiment [2] turned out to be 0.15 nM.

Source of the values: US20260273085A1 (HANSOH BIO, published 2026).
